# Laboratory results taken from patent US20040214258A1.
# Target: hR.Luc-connector-DhaA.H272F-Flag fusion protein with covalently bound biotin-C18H32O4-Cl substrate (Rhodococcus rhodochrous) (UniProt P0A3G2)
# Assay: capture on SA-coated 96-well plate through tethered biotin; captured luciferase activity measured
substance,measurement,value
streptavidin (SA) coated on a solid support (from UniProt P22629 37-163),efficiency of capturing (% of Renilla luciferase activity added to the plate),> 50%
